Experimental data: paper PMC12290059

Molecular target: recombinant SARS-CoV-2^RBD (biotinylated, AVI-tagged) (SARS-CoV-2) (UniProt P0DTC2)
Assay: BLI

“N. vison ACE2 used in biolayer interferometry (domain or fragment)” showed a Kd of 1.5 nM.
